Measured values taken from US20240228595A1.

Biological target: SARS-COV-2 RBD-his tag protein (Sino Biological) (SARS-CoV-2) (UniProt P0DTC2)
Assay: ELISA, SARS-CoV-2-WA-1 RBD coated, antibody titrated

Substance: S309 (Sotrovimab) (antibody)
- EC50: 2 ng/mL
